In paper PMC4288179, “Synergic interplay of the La motif, RRM1 and the interdomain linker of LARP6 in the recognition of collagen mRNA expands the RNA binding repertoire of the La module”:

Biological target: T1, HsLARP6 La module (70-300) (Homo sapiens, UniProt Q9BRS8 70-300)
T1 sequence: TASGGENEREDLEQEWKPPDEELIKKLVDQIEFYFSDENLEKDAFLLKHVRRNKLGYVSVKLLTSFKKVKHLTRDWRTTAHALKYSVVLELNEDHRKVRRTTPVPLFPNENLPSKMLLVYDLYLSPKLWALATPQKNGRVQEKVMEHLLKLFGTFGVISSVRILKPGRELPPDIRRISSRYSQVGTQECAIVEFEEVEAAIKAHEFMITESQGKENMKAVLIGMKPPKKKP
Experiment: ITC; ITC: 20 mM Tris pH 7.25, 100 mM KCl, 5 mM MgCl2, 1 mM DTT, 298 K; protein titrated into RNA
Settings: protein: recombinant, tags: N-terminal His6, TEV-cleaved for initial ITC

Binder	Kd (single strand) [µM]	Kd (stem-loop with internal bulge) [µM]
UUUU (ssRNA) [UUUUOH RNA]	6	–
CAAAGAGUCUACAUGGGUCAUGUUCAGCUUUG (structured_RNA) [32 nt RNA]	–	0.125
